Measured values taken from patent US20140105900A1 (Amgen, published 2014).

Legend:
[1] = target: T1, human IL-21 receptor on cells (human, UniProt Q9HBE5 20-538); test: cell-based or functional assay
[2] = target: cynomolgus IL-21 receptor on cells (cynomolgus monkey, UniProt G7Q0S8 41-559); test: cell-based or functional assay
[3] = target: T2, recombinant human IL-21 receptor (human, UniProt Q9HBE5 20-232); test: KinExA, recombinant human IL-21R
T2 construct: Used in Biacore and KinExA ('recombinant IL-21R', column 'hu'); also called recombinant IL-21R; hu IL-21R
T2 sequence (Q9HBE5 20-232 limits assumed): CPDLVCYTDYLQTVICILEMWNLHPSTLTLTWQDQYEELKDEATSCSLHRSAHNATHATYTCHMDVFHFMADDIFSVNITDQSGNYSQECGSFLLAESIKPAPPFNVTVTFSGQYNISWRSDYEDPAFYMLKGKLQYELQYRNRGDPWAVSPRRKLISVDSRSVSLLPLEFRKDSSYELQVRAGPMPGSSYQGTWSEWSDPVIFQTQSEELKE

[4] = target: T1, human IL-21 receptor on cells; test: flow cytometry on Ramos cells, antibody titration, anti-huIgG detection
Description: Assay protocols ¹B/T co-culture. Mitomicin C-treated human T cells were cultured with B cells in anti-CD3 antibody pre-coated 96-well plates as described in Kuchen et al. (2007) J Immunol 179: 5886, incorporated herein by reference in its entirety. Supernatants were collected for IgA ELISA on day 6. ²B cell IgA production. Negatively selected human peripheral blood B cells were cultured in vitro with IL-21 and CD40L. On day 6, supernatants were collected for human IgG ELISA analysis. ³CD8 IFN-γ production. Purified human CD8 T cells were cultured with IL-21. IFN-γ was measured in the supernatant on day 3. ⁴Whole blood pSTAT3 stimulation. Human or cynomolgus monkey whole blood was pre-incubated with IL-21R mAbs titrations at 37° C. for 1 hr and stimulated with IL-21. Cells were fixed, permeabilized and stained for pSTAT3 and cell surface markers. ⁵Cell based KD measurement. Ramos cells (Human Burkitt's lymphoma) were incubated with a titration of IL-21R mAbs and bound antibody was detected with anti-huIgG by flow cytometry.

[5] = target: T3, recombinant cynomolgus IL-21 receptor (cynomolgus monkey, UniProt G7Q0S8 41-253); test: Biacore, recombinant cyno IL-21R
T3 construct: construct not described; also called cyno IL-21R

[6] = target: T2, recombinant human IL-21 receptor; test: Biacore, recombinant human IL-21R

T1 sequence (Q9HBE5 20-538 limits assumed): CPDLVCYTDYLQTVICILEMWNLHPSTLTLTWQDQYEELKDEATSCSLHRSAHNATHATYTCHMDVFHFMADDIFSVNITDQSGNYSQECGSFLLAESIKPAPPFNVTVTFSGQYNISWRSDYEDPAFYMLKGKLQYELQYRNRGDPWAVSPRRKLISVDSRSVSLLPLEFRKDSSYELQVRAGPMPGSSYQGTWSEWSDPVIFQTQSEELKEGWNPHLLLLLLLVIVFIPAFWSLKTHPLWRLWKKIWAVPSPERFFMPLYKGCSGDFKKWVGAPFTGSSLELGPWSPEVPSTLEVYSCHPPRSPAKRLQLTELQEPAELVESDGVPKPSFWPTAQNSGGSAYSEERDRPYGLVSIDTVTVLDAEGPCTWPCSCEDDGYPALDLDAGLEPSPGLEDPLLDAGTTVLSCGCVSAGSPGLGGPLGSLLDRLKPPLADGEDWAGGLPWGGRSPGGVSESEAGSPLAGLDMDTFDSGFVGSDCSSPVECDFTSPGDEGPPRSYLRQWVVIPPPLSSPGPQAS

| B cell (IgA) IC-50, exp1 [1] [pM] | B cell (IgA) IC-50, exp2 [1] [pM] | B/T co-culture (IgA) IC-50, exp1 [1] [pM] | B/T co-culture (IgA) IC-50, exp2 [1] [pM] | B/T co-culture (IgA) IC-50, exp3 [1] [pM] | B/T co-culture (IgA) IC-50, exp4 [1] [pM] | B/T co-culture (IgA) IC-50, exp5 [1] [pM] | CD8 T (IFNγ) IC-50, exp1 [1] [pM] | CD8 T (IFNγ) IC-50, exp2 [1] [pM] | hu pSTAT3 IC-50, B [1] [pM] | hu pSTAT3 IC-50, T [1] [pM] | cyno pSTAT3 IC-50, B [2] [pM] | cyno pSTAT3 IC-50, T [2] [pM] | Kd [3] [nM] | Kd [4] [nM] | Kd [5] [nM] | Kd [6] [nM] | Binder |
| --- | --- | --- | --- | --- | --- | --- | --- | --- | --- | --- | --- | --- | --- | --- | --- | --- | --- |
| 18 | 49 | 16 | 9 | 11 | 17 | 10 | 79 | 27 | 14 | 8 | 4 | 13 | 0.006 | 0.015 | 0.043 | 0.035 | 34H7 (antibody, V domains shown, Fully human antibody from XenoMouse, subcloned as a full IgG construct; also called anti-IL-21 receptor antibody 34H7; IL-21R mAb 34H7) VH: EVQLVQSGAELKKPGESLKISCKGSGYRFTSYWIGWVRQMPGKGLEWMGIIYPGDSDTRYSPSFQGQVTISADKSISTAYLQWHSLKVSDTAMYYCASPGYSTRWYHFDYWGQGTLVTVSS VL: EIVMTQSPATLSVSPGERATLSCRASQSISSSLVWYQQKPGQAPRLLIYGASTRATGIPARFSGSGSGTEFSLTISSLQSEDFAVYYCQQYNNWPLLTFGPGTKVDIKR |
| 22 | 47 | 29 | 8 | 17 | 17 | 14 | 139 | 48 | 137 | 33 | 65 | 286 | 0.026 | 0.016 | 0.166 | 0.078 | 29G8 (antibody, V domains shown, Fully human antibody from XenoMouse, subcloned as a full IgG construct; also called anti-IL-21 receptor antibody 29G8; IL-21R mAb 29G8) VH: QVQLVESGGGVVQPGRSLRLSCAASGFTFSSYGMHWVRQAPGKGLEWVAVIWYDGSNKYYVDSVKGRFTISRDNSKNTLYLQMNSLRAEDTAVYYCARDRGYYDSGSYYMDYWGQGSLVTVSS VL: DIQMTQSPSSVSASVGDRVTITCRASQGISTWLAWYQQKPGKAPKLLIYAASILQRGVPSRFSGSGSGTDFTLTISSLQPEDFTTYYCQQANSFPRTFGQGTKVEIKR |
| 58 | 31 | 44 | 31 | 24 | 24 | 19 | 203 | 35 | 36 | 10 | 9 | 33 | 0.015 | 0.033 | 0.078 | 0.016 | 30G3 (antibody, V domains shown, Fully human antibody from XenoMouse; also called anti-IL-21 receptor antibody 30G3; IL-21R mAb 30G3) VH: QVQLQESGPGLVKPSETLSLTCTVSGGSISSYYWSWIRQPAGKGLEWIGRIYTSGSTYFNPSLKSRVTMSVDTSKNQFSLKLSSVTAADTAVYYCARGRELLDYWGQGTLVTVSS VL: EVVLTQSPGTLSLSPGERATLSCRASQSFSSSYLAWYQQKPGQAPRLLIFGASSRATGIPDRFSGSGSGTDFTLTINRLEPEDFALYYCQQYGRSPLTFGGGTKVEIKR |
